Experimental data as given in PMC3616737.

How the values were obtained:
[1] = molecular target: T1, XMRV reverse transcriptase (full-length, monomeric) (Xenotropic murine leukaemia …, UniProt A1Z651 658-1328); experiment: X-ray crystallography
[2] = molecular target: T1, XMRV reverse transcriptase …; experiment: SAXS
[3] = molecular target: T1, XMRV reverse transcriptase …; experiment: SAXS; remark: listed apart in the source

B1: hybrid 1 (DNA:RNA)
RNA: AACAGAGUGCGACACCUGAUUCCAU
DNA: TGGAATCAGGTGTCGCACTCTG
- binding result [1]: binds

B2: PPT-18 (DNA:RNA)
RNA: AGUCUCCAGAAAAAGGGGGGAAUGA
DNA: CATTCCCCCCTTTTTCTGGAGA
- binding result [2]: binds

B3: PPT-19 (DNA:RNA)
RNA: UAGUCUCCAGAAAAAGGGGGGAAUG
DNA: ATTCCCCCCTTTTTCTGGAGAC
- binding result [3]: binds
